Source: patent US7410949 (Hoffmann-La Roche, dated 2008)
*1 amine or outer side, *2 acyl side, *3 side chain or, on linkers, in order; H or OH if unused. [ ]: non-standard residue; d: D form. Pqa = N-piperazin-1-yl-4(3H)-quinazolinone-3-acetic acid, O=C(Cn1cnc2ccc(N3CCN([*:1])CC3)cc2c1=O)[*:2]; Bip = N[C@@H](Cc1ccc(-c2ccccc2)cc1)C(=O)O; Dip = N[C@H](C(=O)O)C(c1ccccc1)c1ccccc1; Nle = CCCC[C@H](N)C(=O)O

B1: H-Ile-Lys-Pqa-Arg-His-Tyr-Leu-Asn-(NMe)Leu-Val-Thr-Arg-Gln-Arg-Tyr-NH2 (peptide)
peptide: IKRHYLNLVTRQRY
modifications: N-methyl Leu at PYY position 30 (residue 6 of the second part); Pqa moiety between the two parts; C-terminal amide
B2: H-Ile-Lys-Pqa-Arg-His-Tyr-Leu-Asn-Leu-Val-Thr-Arg-Gln-Arg-(NMe)Tyr-NH2 (peptide)
peptide: IKRHYLNLVTRQRY
modifications: N-methyl Tyr at PYY position 36 (residue 12 of the second part); Pqa moiety between the two parts; C-terminal amide
B3: H-Ile-Lys-Pqa-Arg-His-Tyr-Leu-Asn-Leu-Val-(NMe)Thr-Arg-Gln-Arg-Tyr-NH2 (peptide)
peptide: IKRHYLNLVTRQRY
modifications: N-methyl Thr at PYY position 32 (residue 8 of the second part); Pqa moiety between the two parts; C-terminal amide
B4: H-Ile-(D)Lys-Pqa-Arg-His-Tyr-Leu-Asn-Leu-Val-Thr-Arg-Gln-Arg-Tyr-NH2 (peptide)
peptide: IKRHYLNLVTRQRY
modifications: (D)Lys at PYY position 4 (residue 2 of the first part); Pqa moiety between the two parts; C-terminal amide
B5: H-Ile-Lys-Pqa-Arg-His-Tyr-(NMe)Leu-Asn-Leu-Val-Thr-Arg-Gln-Arg-Tyr-NH2 (peptide)
peptide: IKRHYLNLVTRQRY
modifications: N-methyl Leu at PYY position 28 (residue 4 of the second part); Pqa moiety between the two parts; C-terminal amide
B6: Ac-Ile-Nle-Pqa-Phe-His-Tyr-Leu-Asn-Leu-Val-Thr-Arg-Gln-Arg-Tyr-NH2 (peptide)
peptide: Ac-I[Nle][Pqa]FHYLNLVTRQRY-NH2
SMILES: CCCC[C@H](NC(=O)[C@@H](NC(C)=O)[C@@H](C)CC)C(=O)N1CCN(c2ccc3ncn(CC(=O)N[C@@H](Cc4ccccc4)C(=O)N[C@@H](Cc4c[nH]cn4)C(=O)N[C@@H](Cc4ccc(O)cc4)C(=O)N[C@@H](CC(C)C)C(=O)N[C@@H](CC(N)=O)C(=O)N[C@@H](CC(C)C)C(=O)N[C@H](C(=O)N[C@H](C(=O)N[C@@H](CCCNC(=N)N)C(=O)N[C@@H](CCC(N)=O)C(=O)N[C@@H](CCCNC(=N)N)C(=O)N[C@@H](Cc4ccc(O)cc4)C(N)=O)[C@@H](C)O)C(C)C)c(=O)c3c2)CC1
B7: H-Ile-Lys-Pqa-Arg-His-Tyr-Leu-Asn-Leu-(NMe)Val-Thr-Arg-Gln-Arg-Tyr-NH2 (peptide)
peptide: IKRHYLNLVTRQRY
modifications: N-methyl Val at PYY position 31 (residue 7 of the second part); Pqa moiety between the two parts; C-terminal amide
B8: H-(D) Ile-Lys-Pqa-Arg-His-Tyr-Leu-Asn-Leu-Val-Thr-Arg-Gln-Arg-Tyr-NH2 (peptide)
peptide: IKRHYLNLVTRQRY
modifications: (D)Ile at PYY position 3 (residue 1 of the first part); Pqa moiety between the two parts; C-terminal amide
B9: H-Ile-Lys-Pqa-Arg-His-(NMe)Tyr-Leu-Asn-Leu-Val-Thr-Arg-Gln-Arg-Tyr-NH2 (peptide)
peptide: IKRHYLNLVTRQRY
modifications: N-methyl Tyr at PYY position 27 (residue 3 of the second part); Pqa moiety between the two parts; C-terminal amide
B10: H-Ile-Lys-Pqa-Arg-His-Tyr-Leu-Asn-Leu-Val-Thr-(NMe)Arg-Gln-Arg-Tyr-NH2 (peptide)
peptide: IKRHYLNLVTRQRY
modifications: N-methyl Arg at PYY position 33 (residue 9 of the second part); Pqa moiety between the two parts; C-terminal amide
B11: Ac-Ile-Nle-Pqa-Arg-His-Bip-Leu-Asn-Leu-Val-Thr-Arg-Gln-Arg-Tyr-NH2 (peptide)
peptide: Ac-I[Nle][Pqa]RH[Bip]LNLVTRQRY-NH2
SMILES: CCCC[C@H](NC(=O)[C@@H](NC(C)=O)[C@@H](C)CC)C(=O)N1CCN(c2ccc3ncn(CC(=O)N[C@@H](CCCNC(=N)N)C(=O)N[C@@H](Cc4c[nH]cn4)C(=O)N[C@@H](Cc4ccc(-c5ccccc5)cc4)C(=O)N[C@@H](CC(C)C)C(=O)N[C@@H](CC(N)=O)C(=O)N[C@@H](CC(C)C)C(=O)N[C@H](C(=O)N[C@H](C(=O)N[C@@H](CCCNC(=N)N)C(=O)N[C@@H](CCC(N)=O)C(=O)N[C@@H](CCCNC(=N)N)C(=O)N[C@@H](Cc4ccc(O)cc4)C(N)=O)[C@@H](C)O)C(C)C)c(=O)c3c2)CC1
B12: H-Ile-Lys-Pqa-Arg-His-Tyr-Leu-(D))Asn-Leu-Val-Thr-Arg-Gln-Arg-Tyr-NH2 (peptide)
peptide: IKRHYLNLVTRQRY
modifications: (D)Asn at PYY position 29 (residue 5 of the second part); Pqa moiety between the two parts; C-terminal amide
B13: H-Ile-Lys-Pqa-Ala-His-Tyr-Leu-Asn-Leu-Val-Thr-Arg-Gln-Arg-Tyr-NH2 (peptide)
peptide: H-IK[Pqa]AHYLNLVTRQRY-NH2
SMILES: CC[C@H](C)[C@H](N)C(=O)N[C@@H](CCCCN)C(=O)N1CCN(c2ccc3ncn(CC(=O)N[C@@H](C)C(=O)N[C@@H](Cc4c[nH]cn4)C(=O)N[C@@H](Cc4ccc(O)cc4)C(=O)N[C@@H](CC(C)C)C(=O)N[C@@H](CC(N)=O)C(=O)N[C@@H](CC(C)C)C(=O)N[C@H](C(=O)N[C@H](C(=O)N[C@@H](CCCNC(=N)N)C(=O)N[C@@H](CCC(N)=O)C(=O)N[C@@H](CCCNC(=N)N)C(=O)N[C@@H](Cc4ccc(O)cc4)C(N)=O)[C@@H](C)O)C(C)C)c(=O)c3c2)CC1
B14: Ac-Ile-Nle-Pqa-Arg-His-Dip-Leu-Asn-Leu-Val-Thr-Arg-Gln-Arg-Tyr-NH2 (peptide)
peptide: Ac-I[Nle][Pqa]RH[Dip]LNLVTRQRY-NH2
SMILES: CCCC[C@H](NC(=O)[C@@H](NC(C)=O)[C@@H](C)CC)C(=O)N1CCN(c2ccc3ncn(CC(=O)N[C@@H](CCCNC(=N)N)C(=O)N[C@@H](Cc4c[nH]cn4)C(=O)N[C@H](C(=O)N[C@@H](CC(C)C)C(=O)N[C@@H](CC(N)=O)C(=O)N[C@@H](CC(C)C)C(=O)N[C@H](C(=O)N[C@H](C(=O)N[C@@H](CCCNC(=N)N)C(=O)N[C@@H](CCC(N)=O)C(=O)N[C@@H](CCCNC(=N)N)C(=O)N[C@@H](Cc4ccc(O)cc4)C(N)=O)[C@@H](C)O)C(C)C)C(c4ccccc4)c4ccccc4)c(=O)c3c2)CC1

molecular target: Y1R; test: cell-based or functional assay
Sequence (P25929 whole entry): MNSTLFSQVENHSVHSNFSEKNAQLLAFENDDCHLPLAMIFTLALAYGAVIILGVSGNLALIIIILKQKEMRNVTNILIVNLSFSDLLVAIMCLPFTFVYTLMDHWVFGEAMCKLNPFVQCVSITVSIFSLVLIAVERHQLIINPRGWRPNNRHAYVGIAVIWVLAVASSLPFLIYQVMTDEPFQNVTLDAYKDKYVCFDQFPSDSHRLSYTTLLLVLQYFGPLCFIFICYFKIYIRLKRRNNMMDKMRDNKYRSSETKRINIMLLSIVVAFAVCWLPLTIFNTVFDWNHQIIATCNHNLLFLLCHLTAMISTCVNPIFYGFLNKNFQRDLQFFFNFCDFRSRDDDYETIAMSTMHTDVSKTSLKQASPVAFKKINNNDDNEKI

| Binder | Y1R EC50(nM) FLIPR [nM] |
| --- | --- |
| B1 | > 5000 |
| B2 | > 5000 |
| B3 | > 5000 |
| B4 | > 5000 |
| B5 | > 5000 |
| B6 | > 5000 |
| B7 | > 5000 |
| B8 | > 5000 |
| B9 | > 5000 |
| B10 | > 5000 |

molecular target: Y4R; test: cell-based or functional assay

| Binder | Y4R EC50(nM) FLIPR [nM] |
| --- | --- |
| B11 | > 5000 |
| B12 | > 5000 |
| B1 | > 5000 |
| B2 | > 5000 |
| B13 | > 5000 |
| B14 | > 5000 |
| B3 | > 5000 |
| B4 | > 5000 |
| B5 | > 5000 |
| B6 | > 5000 |
| B7 | > 5000 |
| B8 | > 5000 |
| B9 | > 5000 |
| B10 | > 5000 |
